Measured values published in US20250027068.
Numbering of substitutions follows the chain as printed.

B1: PRT-48 (protein)
chain: MANQEIRYSEVTPYHVTSVWTKGVTPPANFTQGEDVFHAPYKANQGWYDINKTFNGGDDLLCGAATAGNMLHWWFDQNKDYIDRYLEEHPEKQKINFNGEQMFDVKEAIDTKNNQTDSKLFEYFKEKAFPYLSTKHLGVFPDRVIDMFINGYRLSLTNHGPTPVKEGSKDPRGGFFDDVFTRGDQSKLLTSRHDFKEKNLKEISDLIKKELKEGKALGLSHTYANVRINHVINLWGADFDSNGNLKAIYVTDSDSNASVGMKKYRVGVNSAGKVAISAKEIKEDNIGAQVLGLFTLSTGQDSWNQTN
B2: PRT-52 (protein)
chain: B1 chain with K42V, D80E, E87K, N114S, R143L, D178A, L200Y, K201N, R265F
B3: PRT-46 (protein)
chain: MANQEIRYSEVTPYHVTSVWTKGVTPPANFTQGEDVFHAPYVANQGWYDITKTFNGKDDLLCGAATAGNMLHWWFDQNKDQIDRYLEEHPEKAKINFNGEQMFDVKEAIDTKNDQLDSKLFEYFKEKAFPYLSTKHLGVFPDLVLDMFINGYRLSLTNHGPTPVKEGSKDPRGGFFDAVFTRGDQSKLLTSRHDFKEKNLKEISDLIKKELTEGKALGLSHTYANVRINHVINLWGADFDSNGNLKAIYVTDSDSNASIGMKRYFVGVNSAGKVAISAKEIKEDNIGAQVLGLFTLSTGQDSWNQTN
B4: PRT-64 (protein)
chain: B3 chain with A93Q, D114H, L143H, L145I, F175I, R263K
B5: PRT-47 (protein)
chain: B3 chain with T51N, K57G, E87K, L116T, D117N, I259V, R263K
B6: PRT-62 (protein)
chain: B3 chain with D83K, A93Q, D114H, L143H, L145I, F175I, T181G, R263K
B7: PRT-49 (protein)
chain: B3 chain with Q81Y, L116T, L143H, L145I, A178D, T181G, I259V, R263K
B8: PRT-63 (protein)
chain: B3 chain with D80E, D83K, E87K, A93Q, D114H, L143H, F175I, A178D, R263K
B9: PRT-53 (protein)
chain: B3 chain with A93Q, L145I, F175I, R263K
B10: PRT-56 (protein)
chain: B3 chain with T51N, D80E, Q81Y, A93Q, D114H, I259V, R263K
B11: PRT-55 (protein)
chain: B3 chain with D114H, L145I, T181G, R263K
B12: PRT-60 (protein)
chain: B3 chain with D83K, D114H, L143H, L145I, F175I, T181G, R263K
B13: PRT-59 (protein)
chain: B3 chain with D83K, A93Q, D114H, L143H, L145I, R263K
B14: PRT-51 (protein)
chain: B3 chain with T51N, Q81Y, E87K, E88K, A178D, K201E, S241E
B15: PRT-54 (protein)
chain: B3 chain with A93Q, D114H, L145I, R263K
B16: PRT-61 (protein)
chain: B3 chain with T51N, D80E, Q81Y, D83K, A93Q, D114H, L143H, F175I, I259V, R263K
B17: PRT-58 (protein)
chain: B3 chain with T51N, D80E, Q81Y, E87K, A93Q, D114H, A178D, R263K
B18: PRT-57 (protein)
chain: B3 chain with T51N, Q81Y, A93Q, D114H, L145I, T181G, R263K
B19: PRT-4 (protein)
chain: MANQEIRYSEVTPYHVTSVWTKGVTPPANFTQGEDVFHAPYVANQGWYDITKTFNGKDDLLCGAATAGNMLHWWFDQNKEQIERYLKEHPEKQKINFNGEQMFDVKEAIDTKDSQLDSKLFEYFKEKAFPYLSTKHLGVFPDHVIDMFINGYRLSLTNHGPTPVKEGSKDPRGGIFDAVFTRGDQSKLLTSRHDFKEKNLKEISDLIKKELTEGKALALSHTYANVRINHVINLWGADFDSNGNLKAIYVTDSDSNASIGMKKYFVGVNSAGKVAISAKEIKEDNIGAQVLGLFTLSTGQDIWNQTN
B20: PRT-572 (protein)
chain: MANQEIRYSEATPSHITSVWTKGVTPPTQFIQNEDVLHAPYIANQGWYDITKTFNGKDDLLCGAATAGNMLHWWFDQNKEQIENYLKKHPEKQKINFNGEQMFDVKEAIDTKDSQTDSALFSYFKDKAFPYLSTKHLGVFPDHVIDMFINGYRLSLTNHGPTPVKEQTKDPRGGIFDAVFTRGDQSKLLTSRHDFKEKTLNEISQLIKQELTEGKALGLSHTYANVRINHVINLWGADFNAEGNLEAIYVTDSDSNASIGMKKYYVGVNSAGKVAISAKEIEGDNIGAQVLGLFTLSTGQDIWQQTNLEHHHHHH
B21: PRT-678 (protein)
chain: MQITTVWTKGVTPLTPEQFRYNNEEVIHAPYKAGQGWYDITKVFDGKDNLLCGAATAGNMLHWWFDQNKTEIEAYLSKHPEKQKIIFNNQELFDLKRAIDDKDSQTNSQLFNYFRDKAFPNLSARQLGVMPDLVLDMFINGYYLNVFKTQSTDVNRPYQDPDKRGGIFDDVFGKGDQTTLLTARHDLKNLGLEDISTIIKQELRNGRALALSHTYANVSISHVINLWGADFNAEGNLSAIYVTDSDANNSIGMKKYKVGYNAHGRVAISAKKIEGENIGAQVLGLFTLSSGKDIWQKLSLEHHHHHH
B22: PRT-50 (protein)
chain: MANQEIRYSEVTPYHVTSVWTKGVTPPANFTQGEDVFHAPYVANQGWYDINKTFNGKDDLLCGAATAGNMLHWWFDQNKEQIERYLKEHPEKGKINFNGEQMFDVKEAIDTKNNQTDSKLFEYFKEKAFPYLSTKHLGVFPDRVLDMFINGYRLSLTNHGPTPVKEGSKDPRGGFFDDVFGRGDQSKLLTSRHDFKEKNLEEISDLIKKELTEGKALGLSHTYANVRINHVINLWGADFDSNGNLKAIYVTDSDSNASVGMKKYFVGVNSAGKVAISAKEIKEDNIGAQVLGLFTLSTGQDSWNQTN
B23: PRT-3 (protein)
chain: MRNATEAYAKEVPHQITSVWTKGVTPLTPEQFRYNNEDVIHAPYLAHQGWYDITKAFDGKDNLLCGAATAGNMLHWWFDQNKTEIEAYLSKHPEKQKIIFNNQELFDLKAAIDTKDSQTNSQLFNYFRDKAFPNLSARQLGVMPDLVLDMFINGYYLNVFKTQSTDVNRPYQDKDKRGGIFDAVFTRGDQTTLLTARHDLKNKGLNDISTIIKQELTEGRALALSHTYANVSISHVINLWGADFNAEGNLEAIYVTDSDANASIGMKKYFVGINAHGHVAISAKKIEGENIGAQVLGLFTLSSGKDIWQKLS

Molecular target: pooled human IgG

Protein | Enzyme Activity Endpoint Assay: Fab′2 [ng/µL] | Enzyme Activity Endpoint Assay: Fc [ng/µL] | Enzyme Activity Endpoint Assay: IgG [ng/µL] | Enzyme Activity Endpoint Assay: scIgG [ng/µL] | Enzyme Activity Endpoint Assay (purified): Fab′2 [ng/µL] | Enzyme Activity Endpoint Assay (purified): Fc [ng/µL] | Enzyme Activity Endpoint Assay (purified): IgG [ng/µL] | Enzyme Activity Endpoint Assay (purified): scIgG [ng/µL]
B1 | 0 | 5 | 141 | 0 |  |  |  | 
B2 | 0 | 12 | 122 | 0 |  |  |  | 
B3 | 20 | 101 | 15 | 39 |  |  |  | 
B4 |  |  |  |  | 50 | 123 | 16 | 17
B5 | 0 | 5 | 132 | 0 |  |  |  | 
B6 |  |  |  |  | 15 | 94 | 8 | 56
B7 | 30 | 96 | 18 | 40 |  |  |  | 
B8 |  |  |  |  | 44 | 120 | 13 | 19
B9 | 7 | 84 | 9 | 61 |  |  |  | 
B10 |  |  |  |  | 0 | 13 | 125 | 3
B11 |  |  |  |  | 0 | 70 | 19 | 57
B12 |  |  |  |  | 52 | 133 | 16 | 16
B13 |  |  |  |  | 6 | 70 | 8 | 56
B14 | 0 | 11 | 118 | 0 |  |  |  | 
B15 | 0 | 24 | 110 | 10 |  |  |  | 
B16 |  |  |  |  | 0 | 55 | 52 | 50
B17 |  |  |  |  | 0 | 9 | 125 | 1
B18 |  |  |  |  | 0 | 52 | 44 | 55
B19 | 21 | 97 | 23 | 42 |  |  |  | 
B20 |  |  |  |  | 936 | 478 | 0 | 0
B21 |  |  |  |  | 56 | 0 | 39 | 0
B22 | 0 | 5 | 135 | 0 |  |  |  | 
B23 | 14 | 72 | 11 | 33 |  |  |  | 
